ABCA-1-dependent cholesterol efflux ability (reduction upon MPO/HOCl-mediated oxidative damage), RAW 264.7 cells, [3H]-cholesterol data for one substance are collected here from patent US20130137628A1.

The assay has as its target ATP-binding cassette transporter A1 (ABCA1) on RAW 264.7 murine macrophage cells (murine) (UniProt P41233). As to the kind of experiment: cell-based or functional assay.
UniProt P41233, sequence (P41233 whole entry): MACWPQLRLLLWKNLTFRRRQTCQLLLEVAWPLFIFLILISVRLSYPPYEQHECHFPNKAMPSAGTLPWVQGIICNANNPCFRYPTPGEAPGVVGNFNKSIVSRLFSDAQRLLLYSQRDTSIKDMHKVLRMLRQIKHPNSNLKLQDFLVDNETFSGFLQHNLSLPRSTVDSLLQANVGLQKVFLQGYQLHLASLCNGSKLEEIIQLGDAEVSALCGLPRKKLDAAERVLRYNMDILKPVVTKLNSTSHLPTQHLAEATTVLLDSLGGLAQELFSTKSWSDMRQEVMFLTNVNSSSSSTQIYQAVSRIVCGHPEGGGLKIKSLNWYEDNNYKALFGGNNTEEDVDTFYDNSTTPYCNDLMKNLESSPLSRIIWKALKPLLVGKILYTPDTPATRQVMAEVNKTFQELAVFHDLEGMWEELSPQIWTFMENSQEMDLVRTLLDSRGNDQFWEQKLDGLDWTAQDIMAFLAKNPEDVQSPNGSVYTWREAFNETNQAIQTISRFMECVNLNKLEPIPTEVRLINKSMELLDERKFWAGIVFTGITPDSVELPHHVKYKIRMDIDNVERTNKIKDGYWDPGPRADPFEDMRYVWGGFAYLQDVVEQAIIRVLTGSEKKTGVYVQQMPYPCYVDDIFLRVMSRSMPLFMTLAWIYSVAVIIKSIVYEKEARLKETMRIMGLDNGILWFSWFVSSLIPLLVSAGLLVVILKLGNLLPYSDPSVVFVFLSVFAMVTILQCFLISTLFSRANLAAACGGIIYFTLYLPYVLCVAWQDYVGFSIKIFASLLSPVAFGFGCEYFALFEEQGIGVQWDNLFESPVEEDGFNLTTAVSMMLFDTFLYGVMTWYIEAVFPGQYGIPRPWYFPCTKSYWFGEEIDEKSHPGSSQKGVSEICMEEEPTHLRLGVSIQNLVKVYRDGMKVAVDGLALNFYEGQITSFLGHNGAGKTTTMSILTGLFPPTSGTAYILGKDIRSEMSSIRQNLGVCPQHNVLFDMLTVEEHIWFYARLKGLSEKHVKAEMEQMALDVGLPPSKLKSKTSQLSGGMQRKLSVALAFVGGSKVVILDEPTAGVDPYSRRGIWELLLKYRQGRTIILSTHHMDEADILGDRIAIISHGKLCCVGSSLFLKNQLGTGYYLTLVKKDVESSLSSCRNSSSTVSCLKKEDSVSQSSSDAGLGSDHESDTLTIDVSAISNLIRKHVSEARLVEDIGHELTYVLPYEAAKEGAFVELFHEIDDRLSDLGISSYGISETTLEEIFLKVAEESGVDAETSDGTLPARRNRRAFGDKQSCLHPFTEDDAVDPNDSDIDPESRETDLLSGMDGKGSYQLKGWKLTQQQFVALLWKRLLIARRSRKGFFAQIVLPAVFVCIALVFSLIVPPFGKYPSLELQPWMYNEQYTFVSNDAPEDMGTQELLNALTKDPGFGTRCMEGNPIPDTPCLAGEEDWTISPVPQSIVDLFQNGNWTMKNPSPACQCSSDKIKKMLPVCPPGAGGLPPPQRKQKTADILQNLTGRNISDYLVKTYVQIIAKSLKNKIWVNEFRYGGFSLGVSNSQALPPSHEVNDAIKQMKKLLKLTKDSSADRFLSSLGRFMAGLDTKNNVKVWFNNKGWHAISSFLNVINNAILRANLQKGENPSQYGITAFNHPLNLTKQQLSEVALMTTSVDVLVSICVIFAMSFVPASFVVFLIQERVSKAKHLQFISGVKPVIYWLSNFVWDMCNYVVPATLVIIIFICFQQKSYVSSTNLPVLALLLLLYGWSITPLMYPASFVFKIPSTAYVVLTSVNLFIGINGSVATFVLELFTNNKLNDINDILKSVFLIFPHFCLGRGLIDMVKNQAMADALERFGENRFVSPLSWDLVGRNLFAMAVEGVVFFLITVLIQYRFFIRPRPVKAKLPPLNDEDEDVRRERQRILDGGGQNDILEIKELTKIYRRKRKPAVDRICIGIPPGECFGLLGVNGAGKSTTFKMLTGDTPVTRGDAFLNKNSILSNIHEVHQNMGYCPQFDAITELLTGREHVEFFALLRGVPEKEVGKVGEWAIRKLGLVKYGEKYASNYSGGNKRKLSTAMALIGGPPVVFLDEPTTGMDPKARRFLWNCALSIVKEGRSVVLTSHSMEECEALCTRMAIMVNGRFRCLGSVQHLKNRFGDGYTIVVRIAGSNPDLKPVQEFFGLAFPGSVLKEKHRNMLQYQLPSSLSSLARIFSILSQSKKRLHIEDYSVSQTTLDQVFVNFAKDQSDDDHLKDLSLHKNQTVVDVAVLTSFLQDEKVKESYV

As to “recombinant wild type ApoA1 after MPO/HOCl-mediated oxidative damage (from UniProt P02647 25-267)”, the ABCA-1-dependent cholesterol efflux ability (reduction upon MPO/HOCl-mediated oxidative damage), RAW 264.7 cells, [3H]-cholesterol fell in the range of 75 to 80%.
